Reference: publication PMC11741606 (2025)

Columns and labels:
[1] = target: T1, TGEV RBD (receptor-binding domain of the transmissible gastroenteritis coronavirus spike protein) (transmissible gastroenteritis …); assay: SPR
T1 chain: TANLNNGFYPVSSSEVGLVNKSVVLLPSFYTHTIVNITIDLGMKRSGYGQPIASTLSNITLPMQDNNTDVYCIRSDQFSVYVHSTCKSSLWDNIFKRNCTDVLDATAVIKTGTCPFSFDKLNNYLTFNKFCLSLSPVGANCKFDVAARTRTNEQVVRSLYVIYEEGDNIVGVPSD

[2] = target: Arabian camel aminopeptidase N ectodomain fused with the Fc domain of human IgG (Arabian camel (Camelus dromedarius)); assay: SPR

B1: cat aminopeptidase N ectodomain fused with the Fc domain of human IgG (Fc fusion)
chain: YSQEKNRSTESSTAASTAAPTGPTTTVATTLDQSKPWNVYRLPKTLIPDSYNVTLRPYLTPNNKGLYVFTGTNIVRFTCKESTNIVIIHSKRLNYTSHQGHMVALSGVGGFHPQPVIVRTELVELTEYLVVHLQEPLVAGRQYEMNSEFQGELADDLAGFYRSEYMENGVKKVLATTHMQATEARKSFPCFDEPAMKATFNITIIHPNNLVALSNMLPRGPSVPFGEDPTWKVTEFETTPIMSTYLLAYIVSEFSYVETRAPSGVLIRIWARPSAINQGHGDYALKVTGPILDFFSQHYDTPYPLNKSDQIALPDFNAGAMENWGLVTYRESALLYDRQSSSSGNQERVVTVIAHELAHQWFGNLVTLEWWNDLWLNEGFASYVEYLGADFAEPTWNLKDLMVLNDVYRVMAVDALASSHPLSTPASEINTPAQISEVFDSISYSKGASVLRMLSNFLTEDLFKMGIASYLHTYKYGNTIYLNLWEHLQQVVDKQPTIKLPDTVSAIMDRWILQMGFPVITVDTQTGTISQQHFLLDPQSVVTRPSQFNYLWIVPISSVRSGSPQAHYWLPGVEKAQNDLFKTTANDWVLLNLNVTGYYLVNYDNENWKKIQTQLQTDLSVIPVINRAQVIHDAFNLASAQKVPVTLALNNTLFLIQETEYMPWQAALSSLSYFKLMFDRSEVYGPMKRYLKKQVTPLFNHFERVTKNWTDHPQTLMDQYSEINAVSTACSYGVPECEKLAATLFAQWKKNPQNNPIHPNLRSTVYCNAIAQGGEEEWNFVWEQFLKAELVNEADKLRGALACSNQVWILNRFLSYTLDPNLIRKQDVTSTLSSISSNVVGQTLVWDFVQSNWKKLFQDYGTGSFSFSNLIQAVTRRFSTEFELQQLEQFKKNNMDTGFGSATRALEQALEKTKANLKWVKENKDVVLRWFTENS
For B1, which Kd [1] is on record?
Its Kd is 35.6 nM.

B2: bovine aminopeptidase N ectodomain fused with the Fc domain of human IgG (Fc fusion)
chain: YAQEKNKNAERGTAAPTSPTGPTTTSATTLDQSKPWNRYRLPTTLLPDSYRVTLRPYLTPNNNGLYIFTGSSTVRFTCKEPTDVIIIHSKKLNYTQHSGHLAALKGVGDTQAPEIDRTELVLLTEYLVVHLKSSLEAGKTYEMETTFQGELADDLAGFYRSEYMDGNVKKVLATTQMQSTDARKSFPCFDEPAMKATFNITLIHPKDLTALSNMPPKGPSVPFDGDSNWSVTEFETTPVMSTYLLAYIVSEFTSVESVAPNDVQIRIWARPKATADNHGLYALNVTGPILNFFANHYNTAYPLPKSDQIALPDFNAGAMENWGLVTYRENALLYDPQSSSSSNKERVVTVIAHELAHQWFGNLVTLAWWNDLWLNEGFASYVEYLGADYAEPTWNLKDLMVPNDVYSVMAVDALVTSHPLTTPANEVNTPAQISEMFDTISYSKGASVIRMLSNFLTEDLFKKGLASYLQTFAYQNTTYLNLWEHLQMAVENQLSIRLPDTVSAIMDRWTLQMGFPVITVDTNTGTISQKHFLLDPNSTVTRPSQFNYLWIVPISSIRNGQPQEHYWLRGEERNQNELFKAAADDWVLLNINVTGYYQVNYDENNWKKIQNQLMSRRENIPVINRAQVIYDSFNLASAHMVPVTLALNNTLFLKNEMEYMPWQAAVSSLNYFKLMFDRTEVYGPMQNYLKNQVEPIFLYFENLTKNWTEIPENLMDQYSEINAISTACSNGLPKCEELAKTLFNQWMNNPNVNPIDPNLRSTIYCNAIAQGGQEEWDFAWNQLQQAELVNEADKLRSALACTNHVWLLNRYLSYTLNPDLIRKQDATSTITSIASNVIGQSLAWDFIRSNWKKLFEDYGGGSFSFSNLIQGVTRRFSTEFELQQLEEFKENNMDVGFGSGTRALEQALEKTKANINWVKENKEVVLNWFKDHS
modifications: Wild type. Position 797 in the paper is dog APN alignment numbering, not bovine numbering. Limits from TOPO_DOM extracellular. hFc carrier omitted. N-glycosylated (HEK293T).
For B2, which Kd [1] is on record?
Its Kd is 1660 nM.

B3: PDCoV RBD (receptor-binding domain of the porcine deltacoronavirus spike protein) (domain or fragment)
chain: VTLPKLPELEVVQLNISAHMDFGEARLDSVTINGNTSYCVTKPYFRLETNFMCTGCTMNLRTDTCSFDLSAVNNGMSFSQFCLSTESGACEMKIIVTYVWNYLLRQRLYVTAVEGQTHTGTTSVHATDTSSV
B3 was tested. Which Kd [2] did it give?
The Kd was 10800 nM.
